For data set [1], the target named is T1, GTP cyclohydrolase IB (GCYH-IB) (Neisseria gonorrhoeae, UniProt Q5F9K6).
T1 sequence (Q5F9K6 1-257): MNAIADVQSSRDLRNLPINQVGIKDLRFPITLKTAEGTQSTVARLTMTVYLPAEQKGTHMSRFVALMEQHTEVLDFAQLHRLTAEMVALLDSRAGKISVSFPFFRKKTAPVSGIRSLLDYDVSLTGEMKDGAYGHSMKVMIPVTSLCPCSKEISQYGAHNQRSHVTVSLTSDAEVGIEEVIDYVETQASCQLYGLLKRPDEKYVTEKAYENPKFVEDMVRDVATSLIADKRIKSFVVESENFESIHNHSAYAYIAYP
As to the kind of experiment: competitive inhibition kinetics, fluorescence assay of neopterin. The format is biochemical.

Data set [2] concerns the target GTP cyclohydrolase IB (GCYH-IB) (Neisseria gonorrhoeae, UniProt Q5F9K6). In words: X-ray crystal structure at […] Å. The format is biochemical.
The target of data set [3] is Neisseria gonorrhoeae GCYH-IB Cys149Ala mutant (Neisseria gonorrhoeae) (UniProt Q5F9K6). As to the kind of experiment: SEC.
For data set [4], the target named is Neisseria gonorrhoeae GCYH-IB Cys149Ser mutant (Neisseria gonorrhoeae) (UniProt Q5F9K6). In words: SEC.
In data set [5] the target is Neisseria gonorrhoeae GCYH-IB Glu152Ala mutant (Neisseria gonorrhoeae) (UniProt Q5F9K6). In words: SEC.
In data set [6] the target is Neisseria gonorrhoeae GCYH-IB Glu243Ala mutant (Neisseria gonorrhoeae) (UniProt Q5F9K6). As to the kind of experiment: SEC.
Data set [7] concerns the target Neisseria gonorrhoeae GCYH-IB His246Ala mutant (Neisseria gonorrhoeae) (UniProt Q5F9K6). As to the kind of experiment: SEC.
The target in data set [8] is Neisseria gonorrhoeae GCYH-IB His246Asn mutant (Neisseria gonorrhoeae) (UniProt Q5F9K6). In words: SEC.
For data set [9], the target named is Neisseria gonorrhoeae GCYH-IB His246Asp mutant (Neisseria gonorrhoeae) (UniProt Q5F9K6). As to the kind of experiment: SEC.
The target of data set [10] is Neisseria gonorrhoeae GCYH-IB His246Gln mutant (Neisseria gonorrhoeae) (UniProt Q5F9K6). As to the kind of experiment: SEC.
Data set [11] concerns the target Neisseria gonorrhoeae GCYH-IB His246Lys mutant (Neisseria gonorrhoeae) (UniProt Q5F9K6). As to the kind of experiment: SEC.
Substrate in the data set “steady-state kinetics”: Nc1nc2c(ncn2[C@@H]2O[C@H](COP(=O)(O)OP(=O)(O)OP(=O)(O)O)[C@@H](O)[C@H]2O)c(=O)[nH]1
As to the kind of experiment: steady-state kinetics. Type of data set: biochemical, Neisseria gonorrhoeae. To be noted: Mn2+ active site.

The data set “crystal structure” concerns the molecule itself. As to the kind of experiment: crystal structure.

`Nc1nc2c(ncn2[C@H]2C[C@H](O)[C@@H](COP(=O)(O)OP(=O)(O)OP(=O)(O)O)O2)c(=O)[nH]1` [2′-deoxyGTP] had an inhibition constant Ki in [1] of 164 µM.
The same measure, in the same setting: to `Nc1nc2c(ccn2[C@@H]2O[C@H](COP(=O)(O)OP(=O)(O)OP(=O)(O)O)[C@@H](O)[C@H]2O)c(=O)[nH]1` [7-deaza-GTP] belongs 45.7 µM.
With `Nc1nc2c([nH]c(=O)n2[C@@H]2O[C@H](CO[P@@](=O)(O)O[P@@](=O)(O)OP(=O)(O)O)[C@@H](O)[C@H]2O)c(=O)[nH]1` [8-oxo-GTP], the Ki in [2] came out at 0.149 µM.
“Neisseria gonorrhoeae GCYH-IB Cys149Ala mutant (from UniProt Q5F9K6 1-257) (enzyme)” gave a stoichiometry N in [3] of 4.
For “Neisseria gonorrhoeae GCYH-IB Cys149Ser mutant (from UniProt Q5F9K6 1-257) (enzyme)”, the stoichiometry N in data set [4] was found to be 4.
The molecule “Neisseria gonorrhoeae GCYH-IB Glu152Ala mutant (from UniProt Q5F9K6 1-257) (enzyme)” had a stoichiometry N in [5] of 4.
Consider “Neisseria gonorrhoeae GCYH-IB Glu243Ala mutant (from UniProt Q5F9K6 1-257) (enzyme)”, for which the stoichiometry N in data set [6] was 4.
For “Neisseria gonorrhoeae GCYH-IB His246Ala mutant (from UniProt Q5F9K6 1-257) (enzyme)”, the stoichiometry N in data set [7] stood at 4.
Regarding “Neisseria gonorrhoeae GCYH-IB His246Asn mutant (from UniProt Q5F9K6 1-257) (enzyme)”, the stoichiometry N in data set [8] stood at 4.
“Neisseria gonorrhoeae GCYH-IB His246Asp mutant (from UniProt Q5F9K6 1-257) (enzyme)” gave a stoichiometry N in data set [9] of 4.
“Neisseria gonorrhoeae GCYH-IB His246Gln mutant (from UniProt Q5F9K6 1-257) (enzyme)” had a stoichiometry N in [10] of 4.
In data set [11], “Neisseria gonorrhoeae GCYH-IB His246Lys mutant (from UniProt Q5F9K6 1-257) (enzyme)” had a stoichiometry N of 4.

B1: GTP cyclohydrolase IB (GCYH-IB) (Neisseria gonorrhoeae FA 1090) (protein)
chain: MNAIADVQSSRDLRNLPINQVGIKDLRFPITLKTAEGTQSTVARLTMTVYLPAEQKGTHMSRFVALMEQHTEVLDFAQLHRLTAEMVALLDSRAGKISVSFPFFRKKTAPVSGIRSLLDYDVSLTGEMKDGAYGHSMKVMIPVTSLCPCSKEISQYGAHNQRSHVTVSLTSDAEVGIEEVIDYVETQASCQLYGLLKRPDEKYVTEKAYENPKFVEDMVRDVATSLIADKRIKSFVVESENFESIHNHSAYAYIAYP
Consider B1, for which the Km in “steady-state kinetics” turned out to be 9.15 µM.

B2: Neisseria gonorrhoeae GTP cyclohydrolase IB, wild type (enzyme)
chain: MNAIADVQSSRDLRNLPINQVGIKDLRFPITLKTAEGTQSTVARLTMTVYLPAEQKGTHMSRFVALMEQHTEVLDFAQLHRLTAEMVALLDSRAGKISVSFPFFRKKTAPVSGIRSLLDYDVSLTGEMKDGAYGHSMKVMIPVTSLCPCSKEISQYGAHNQRSHVTVSLTSDAEVGIEEVIDYVETQASCQLYGLLKRPDEKYVTEKAYENPKFVEDMVRDVATSLIADKRIKSFVVESENFESIHNHSAYAYIAYP
modifications: S-nitrosylated Cys149 (as purified from E. coli)
With B2, in “crystal structure”, the “stoichiometry N” value stood at 4.

The values are drawn from article PMC5558430 (The Biochemical journal, 2017).
